Assay results as given in publication PMC9352680, “A comprehensive thermodynamic model for RNA binding by the Saccharomyces cerevisiae Pumilio protein PUF4”.

T1: PUF4 RNA-binding domain (Saccharomyces cerevisiae, UniProt P25339 537-888)
T1 sequence: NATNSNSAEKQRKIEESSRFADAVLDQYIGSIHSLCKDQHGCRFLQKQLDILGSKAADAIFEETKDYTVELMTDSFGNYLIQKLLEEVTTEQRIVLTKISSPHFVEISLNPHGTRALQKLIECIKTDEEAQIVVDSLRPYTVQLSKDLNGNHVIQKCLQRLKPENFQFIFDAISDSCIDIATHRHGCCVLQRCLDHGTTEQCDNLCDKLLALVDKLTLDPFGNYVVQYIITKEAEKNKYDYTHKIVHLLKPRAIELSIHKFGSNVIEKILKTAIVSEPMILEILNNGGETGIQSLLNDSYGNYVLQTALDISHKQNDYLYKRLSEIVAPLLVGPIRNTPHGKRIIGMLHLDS


The binders below were run against T1, PUF4 RNA-binding domain (assay: Mg; RNA-MaP; 20 mM Na-HEPES pH 7.4, 30 mM KOAc, 0.75 mM MgCl2, 0.1% Tween-20, 5% glycerol, 0.1 mg/mL BSA, 2 mM DTT; 25 C; 0.0125-409.6 nM protein). Conditions: tags: N-His6-TEV cleaved; C-SNAP kept, Cy3B-labelled; label: tethered on chip by stalled RNA polymerase.

Binder | Kd
Id_ii_S2_P4E.2_K4.1_C4.2_[C-2A]_H4.1_A4.1_F4.1_T4.2_[G10A] (ssRNA) RNA: UUUGAUUAAUAUGAUAUCGUUCUUUCUAUUGUAUAUUAAUUUCUUUCUCGAUAUCAUAUUAAUCUUU | 0.782 nM
Id_ii_S2_P4E.2_K4.1_C4.2_[T-1G]_H4.1_A4.1_F4.1_T4.2_[G10A] (ssRNA) RNA: UUUGAUUAAUAUGAUAUCGUUCUUUCUCGUGUAUAUUAAUUUCUUUCUCGAUAUCAUAUUAAUCUUU | 0.316 nM
Id_ii_S2_P4E.2_K4.1_C4.2_[C-2A]_[T-1G]_H4.1_A4.1_F4.1_T4.2_[G10A] (ssRNA) RNA: UUUGAUUAAUAUGAUAUCGUUCUUUCUAGUGUAUAUUAAUUUCUUUCUCGAUAUCAUAUUAAUCUUU | 0.973 nM
Id_ii_S2_P4E.2_K4.1_C4.2_[C-2A]_[T-1A]_H4.1_A4.1_F4.1_T4.2_[G10A] (ssRNA) RNA: UUUGAUUAAUAUGAUAUCGUUCUUUCUAAUGUAUAUUAAUUUCUUUCUCGAUAUCAUAUUAAUCUUU | 1.93 nM
Id_ii_S2_P4E.2_K4.1_C4.2_[T-1A]_H4.1_A4.1_F4.1_T4.2_[G10C] (ssRNA) RNA: UUUGAUUAAUAUGAUAUCGUUCUUUCUCAUGUAUAUUACUUUCUUUCUCGAUAUCAUAUUAAUCUUU | 0.716 nM
Id_ii_S2_P4E.2_K4.1_C4.2_[T-1C]_H4.1_A4.1_F4.1_T4.2_[G10A]_[T11A] (ssRNA) RNA: UUUGAUUAAUAUGAUAUCGUUCUUUCUCCUGUAUAUUAAAUUCUUUCUCGAUAUCAUAUUAAUCUUU | 0.324 nM
Id_ii_S2_P4E.2_K4.1_C4.2_[T-1A]_H4.1_A4.1_F4.1_T4.2_[G10C]_[T11C] (ssRNA) RNA: UUUGAUUAAUAUGAUAUCGUUCUUUCUCAUGUAUAUUACCUUCUUUCUCGAUAUCAUAUUAAUCUUU | 0.746 nM
Id_ii_S2_P4E.2_K4.1_C4.2_[C-2A]_[T-1A]_H4.1_A4.1_F4.1_T4.2_[G10A]_[T11A] (ssRNA) RNA: UUUGAUUAAUAUGAUAUCGUUCUUUCUAAUGUAUAUUAAAUUCUUUCUCGAUAUCAUAUUAAUCUUU | 3.89 nM
Id_ii_S2_P4E.2_K4.1_C4.2_[C-2A]_H4.1_A4.1_F4.1_T4.2_[G10C] (ssRNA) RNA: UUUGAUUAAUAUGAUAUCGUUCUUUCUAUUGUAUAUUACUUUCUUUCUCGAUAUCAUAUUAAUCUUU | 1.11 nM
Id_ii_S2_P4E.2_K4.1_C4.2_[T-1C]_H4.1_A4.1_F4.1_T4.2 (ssRNA) RNA: UUUGAUUAAUAUGAUAUCGUUCUUUCUCCUGUAUAUUAGUUUCUUUCUCGAUAUCAUAUUAAUCUUU | 0.166 nM
Id_ii_S2_P4E.2_K4.1_C4.2_[C-2A]_H4.1_A4.1_F4.1_T4.2_[G10T]_[T11C] (ssRNA) RNA: UUUGAUUAAUAUGAUAUCGUUCUUUCUAUUGUAUAUUAUCUUCUUUCUCGAUAUCAUAUUAAUCUUU | 0.401 nM
Id_ii_S2_P4E.2_K4.1_C4.2_[C-2A]_[T-1A]_H4.1_A4.1_F4.1_T4.2_[G10T]_[T11C] (ssRNA) RNA: UUUGAUUAAUAUGAUAUCGUUCUUUCUAAUGUAUAUUAUCUUCUUUCUCGAUAUCAUAUUAAUCUUU | 1.1 nM
Id_ii_S2_P4E.2_K4.1_C4.2_[C-2A]_[T-1C]_H4.1_A4.1_F4.1_T4.2_[G10T]_[T11A] (ssRNA) RNA: UUUGAUUAAUAUGAUAUCGUUCUUUCUACUGUAUAUUAUAUUCUUUCUCGAUAUCAUAUUAAUCUUU | 0.628 nM
Id_ii_S2_P4E.2_K4.1_C4.2_[C-2A]_[T-1C]_H4.1_A4.1_F4.1_T4.2_[G10A]_[T11C] (ssRNA) RNA: UUUGAUUAAUAUGAUAUCGUUCUUUCUACUGUAUAUUAACUUCUUUCUCGAUAUCAUAUUAAUCUUU | 0.678 nM
Id_ii_S2_P4E.2_K4.1_C4.2_[C-2A]_H4.1_A4.1_F4.1_T4.2_[G10A]_[T11A] (ssRNA) RNA: UUUGAUUAAUAUGAUAUCGUUCUUUCUAUUGUAUAUUAAAUUCUUUCUCGAUAUCAUAUUAAUCUUU | 0.939 nM
Id_ii_S2_P4E.2_K4.1_C4.2_[C-2T]_H4.1_A4.1_F4.1_T4.2_[G10A] (ssRNA) RNA: UUUGAUUAAUAUGAUAUCGUUCUUUCUUUUGUAUAUUAAUUUCUUUCUCGAUAUCAUAUUAAUCUUU | 0.408 nM
Id_ii_S2_P4E.2_K4.1_C4.2_[C-2A]_[T-1C]_H4.1_A4.1_F4.1_T4.2_[G10T]_[T11C] (ssRNA) RNA: UUUGAUUAAUAUGAUAUCGUUCUUUCUACUGUAUAUUAUCUUCUUUCUCGAUAUCAUAUUAAUCUUU | 0.33 nM
Id_ii_S2_P4E.2_K4.1_C4.2_[T-1G]_H4.1_A4.1_F4.1_T4.2_[G10A]_[T11A] (ssRNA) RNA: UUUGAUUAAUAUGAUAUCGUUCUUUCUCGUGUAUAUUAAAUUCUUUCUCGAUAUCAUAUUAAUCUUU | 0.489 nM
Id_ii_S2_P4E.2_K4.1_C4.2_[C-2A]_[T-1C]_H4.1_A4.1_F4.1_T4.2_[G10A] (ssRNA) RNA: UUUGAUUAAUAUGAUAUCGUUCUUUCUACUGUAUAUUAAUUUCUUUCUCGAUAUCAUAUUAAUCUUU | 0.442 nM
UCUCUUUCUAUUAUUGUCUCUU (ssRNA) [Ib_S1_P5E.1_K5.1_C5.1_H5.1_[G2C]_A5.1_F5.1_[A10G]_T5.1] | > 2300 nM
UCUCUUCGUAUUAUUCUCUCUU (ssRNA) [Ib_S1_P5E.1_K5.1_C5.1_H5.1_[T1C]_A5.1_F5.1_[A10C]_T5.1] | > 2300 nM
UCUCUUGGUAUUAUUCUCUCUU (ssRNA) [Ib_S1_P5E.1_K5.1_C5.1_H5.1_[T1G]_A5.1_F5.1_[A10C]_T5.1] | > 2300 nM
UCUCUUAGUAUUAUUUUCUCUU (ssRNA) [Ib_S1_P5E.1_K5.1_C5.1_H5.1_[T1A]_A5.1_F5.1_[A10T]_T5.1] | > 2300 nM
